Data: paper PMC12218935, “Opposing role of phagocytic receptors MERTK and AXL in Progranulin deficient FTD” (Communications Biology, 2025)
Each block holds one binder with its values, some of them ahead of it.

How the values were obtained:
[1] = target: T1, Gas6, recombinant human, His-tagged (human, UniProt Q14393 31-678); test: SPR; Biacore T200, CM5 chip; Protein A amine-coupled (2300 RU), Fc-Mer (150 RU) or Fc-Axl (140 RU) captured; Gas6 or PGRN injected at 20 uL/min for 500 s, 1000 s dissociation; HBS-EP+ with 1.5 mM CaCl2 and 0.1% BSA; 1:1 kinetic model; conditions: both partners purified
T1 construct: human GAS6, recombinant, bought from R&D Systems; Limits and the end of the tag are in the vendor's data sheet; also called H6-tagged-GAS6; source: bought: R&D Systems (885-GSB-050)
T1 sequence (looked up): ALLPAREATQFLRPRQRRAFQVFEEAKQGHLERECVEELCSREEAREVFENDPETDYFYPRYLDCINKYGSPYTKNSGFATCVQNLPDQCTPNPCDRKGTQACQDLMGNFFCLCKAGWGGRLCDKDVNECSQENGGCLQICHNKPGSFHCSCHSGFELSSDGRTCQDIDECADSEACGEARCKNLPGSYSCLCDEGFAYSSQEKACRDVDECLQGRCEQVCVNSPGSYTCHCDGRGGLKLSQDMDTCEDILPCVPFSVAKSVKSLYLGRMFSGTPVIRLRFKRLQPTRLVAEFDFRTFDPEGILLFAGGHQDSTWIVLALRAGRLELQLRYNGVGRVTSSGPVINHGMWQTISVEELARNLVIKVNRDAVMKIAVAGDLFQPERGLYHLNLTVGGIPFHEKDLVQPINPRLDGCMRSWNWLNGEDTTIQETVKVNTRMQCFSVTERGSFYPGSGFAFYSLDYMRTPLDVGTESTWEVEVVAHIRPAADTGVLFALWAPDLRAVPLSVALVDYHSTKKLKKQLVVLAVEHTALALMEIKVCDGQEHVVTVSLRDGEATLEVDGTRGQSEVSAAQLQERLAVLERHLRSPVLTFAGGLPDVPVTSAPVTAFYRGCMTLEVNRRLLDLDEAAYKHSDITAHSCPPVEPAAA

[2] = target: T2, Fc-Mer (MERTK Fc chimera) (human, UniProt Q12866 21-505); test: SPR
T2 chain: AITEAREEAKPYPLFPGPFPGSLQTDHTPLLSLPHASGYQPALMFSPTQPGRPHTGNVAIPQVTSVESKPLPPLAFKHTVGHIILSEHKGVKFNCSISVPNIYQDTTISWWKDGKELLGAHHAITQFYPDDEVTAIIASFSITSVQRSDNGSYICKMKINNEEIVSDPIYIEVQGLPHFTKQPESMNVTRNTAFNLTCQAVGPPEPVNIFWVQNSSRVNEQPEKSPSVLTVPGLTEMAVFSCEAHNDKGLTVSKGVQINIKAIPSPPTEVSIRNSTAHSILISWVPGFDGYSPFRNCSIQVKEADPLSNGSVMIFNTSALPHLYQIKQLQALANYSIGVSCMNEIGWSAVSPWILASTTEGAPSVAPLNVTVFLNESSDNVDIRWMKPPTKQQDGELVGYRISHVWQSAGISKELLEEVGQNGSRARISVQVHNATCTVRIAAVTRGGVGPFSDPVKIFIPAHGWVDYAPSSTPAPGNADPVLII

Kd [1]: 27.7 nM
B1: Fc-Mer (MERTK Fc chimera) (Fc fusion, human, UniProt Q12866 21-505, looked up)
chain: T2 chain
notes: human MERTK (Mer) part of the bought Fc chimera; Captured on Protein A by its Fc; As far as I recall the vendor's product is the extracellular domain of human Mer fused to human IgG1 Fc at the C-terminus; limits are in the vendor's data sheet; source: bought: R&D Systems (891-MR-100)

koff [2]: 0.000888 s⁻¹
B2: Gas6, recombinant human, His-tagged (ligand)
chain: T1 sequence (looked up)
